Biological target: recombinant HA Victoria (B/Brisbane/60/2008) fused to an HIS-Tag (influenza B virus B/Brisbane/60/2008 (Victoria lineage))
Experiment: SPR

Work on “NKp46-Ig (extracellular portion of human NKp46 fused to the Fc portion of human IgG1) (from UniProt O76036 22-258) (Fc fusion)” yielded a fold lower affinity than to the HA of IAV of 7 fold.
